Positions count from the first letter of the chain named. Entries after “also recorded” stand apart in the source; their conditions may differ.
Key:
[1] = test system: NIS expressing organs (thyroid and stomach) and BXPC-3-hNIS tumor; assay: SPECT/CT dual isotope imaging of nude mice with BXPC-3-hNIS tumors; conditions: four hours after i.p. 250 μCi of each isotope
Procedure: FIG. 6. SPECT/CT dual isotope imaging of nude mice implanted with SQ BXPX-3-hNIS tumors. Animals were injected i.p with 250 μCi ^125I and 250 μCi ^99mTc and imaged four hours later. Images were processed using Vivo Quant software. The scale was adjusted manually to get minimal yellow in the tissues.
The stomach and thyroid signals were subtract from the SPECT dataset (FIG. 5). In this experiment, nude female mice (5-week of age) were injected with 3×10^6 BXPC-3-hNIS cells. When tumors reached a diameter of 1 cm, mice were injected I.P. with ^125I sodium iodide (250 μCi) and/or ^99mTc-pertechneate (250 μCi). Four hours post isotope administration, SPECT/CT data were acquired with U-SPECT-II (MiLabs). The SPECT emission data were collected in dual-energy windows to separate the gamma emision energy counts from ^99mTc (140 keV) and ^125I (35 keV). […] Radioiodide thyroid signal subtraction was performed by normalizing the ^125I SPECT data to thyroid tissue on the ^99mTc SPECT data using the image arithmetic tools available in PMOD image fusion software. This was performed in three steps by (1) calculating the normalization factor (i.e., the inverse ratio between the maximum voxel value corresponding to the thyroid tissue on the ^125I SPECT and the maximum voxel value corresponding to the thyroid tissue on the ^99mTc SPECT data set), (2) multiplying each voxel in the ^125I SPECT dataset by this normalization factor, and (3) subtracting the normalized ^125I SPECT dataset from ^99mTc SPECT data set to generate a thyroid subtraction SPECT dataset (FIG. 5C). Similarly, ^99mTc stomach signal subtraction was performed by (1) calculating the normalization factor which in this case is the inverse ratio of the maximum voxel value corresponding to the stomach tissue on the ^99mTc SPECT to the maximum voxel value corresponding to the stomach tissue in the ^125I SPECT data set, (2) multiplying each voxel in the ^99mTc SPECT dataset by this normalization factor, and (3) subtracting the normalized ^99mTc SPECT dataset from ^125I SPECT data set to generate a stomach subtraction SPECT dataset (FIG. 5B).

[2] = test system: NIS polypeptide-mediated uptake in stomach; assay: NIS imaging of a mouse fed oral CT contrast agent by gavage; format: in vivo; conditions: mouse with NIS transduced liver, then imaged
From the text: In the following example, ingestion of barium sulfate was used to enable and enhance discrimination of NIS expression in the liver.

Mel624 cells = assay: radiotracer uptake assay in Mel624 cells stably expressing NIS polypeptides; format: cell-based, human; conditions: for uptake of pertechnetate (Technetium-99m) / uptake of radioiodide (Iodine-125): Mel624 cells stably expressing the NIS polypeptide, 37° C. for 1 hour, +/−300 μM KClO4, gamma counter
Procedure: Mel624 cells stably expressing a wild-type human NIS polypeptide (Mel-NIS) or one of two mutant NIS polypeptides (Mel-NIS-93E or Mel-NIS-93Q) were plated in 96-well plates at a density that would lead them to confluency on the day of the uptake assay. 1× Hank's balanced salt solution with calcium, magnesium (HBSS) (Cellgro) and 1 mM HEPES was adjusted to pH 7.3 using KOH (HBBS-HEPES) on the day of the assay. Culture medium was removed from the cells, and 150 μL of HBSS-HEPES+/−300 μM KClO4 was added to the wells. The cells were incubated for 10 minutes at room temperature prior to the addition of radiotracer. Radiotracers, ^125I and ^99mTc, were diluted in HBSS-HEPES to about 70,000 to 100,000 CPM/25 μL (CPM, counts per minute). 25 μL of radiotracer was added to the cells in HBSS-HEPES+/−KClO4, and the cells were incubated at 37° C. for 1 hour. The cells were then washed twice with cold HBSS-HEPES buffer and lysed to release the intracellular radiotracer by adding 200 μL 1M NaOH. Lysates were transferred to strip tubes and quantified using a gamma counter.

[3] = test system: BxPC3 cells (human pancreatic tumor cells); assay: 123I/99mTc subtraction SPECT of BxPC3 tumors expressing NIS or NIS-93E in athymic mice; format: in vivo; conditions: subcutaneous BxPC3 tumors; four hours after i.p. 123I and 99mTcO4
Procedure: Image subtraction is used to discriminate a tumor that concentrates only one of two NIS isotopes from organs that concentrate both isotopes (e.g., thyroid gland, stomach, and salivary glands). BxPC3 cells (human pancreatic tumor cells) stably expressing either wild-type human NIS polypeptides or human mutant NIS-93E polypeptides are implanted subcutaneously in the flanks of athymic mice. Once tumors grow to a diameter of 5-8 mm, ^123I/^99mTc subtraction SPECT is performed using a dual-detector SPECT camera. Four hours after the intraperitoneal administration of 250 μCi ^123I sodium iodide and 250 μCi ^99mTcO4, SPECT/CT data are acquired. The SPECT emission data are collected in dual-energy windows to separate the ^99mTc and ^123I counts. The ^99mTc window is centered at 140 keV, and the ^123I window is placed with a 4% offset above 159 keV to minimize the spillover of the ^99mTc photopeak into the much less intense ^123I photopeak. SPECT reconstruction is performed for each of the two acquisition windows. ^123I SPECT voxel intensities on thyroid tissue are normalized to the corresponding ^99mTc SPECT data, and in this way a normalization factor is determined Each voxel in the ^123I SPECT dataset is then multiplied by this normalization factor, and the normalized ^123I SPECT data is subtracted from the ^99mTc SPECT data to create a subtraction SPECT dataset. […]

## [O]=[99Tc](=[O])(=[O])[O-] [^99mTc, ^99mTc-pertechneate]
[1]
  accumulation in stomach: preferentially accumulates
  accumulation in tumor (BXPC-3-hNIS): does not discriminate between the two isotopes; also recorded: accumulate both isotopes to similar concentrations

## [125I-].[Na+] [^125I, ^125I sodium iodide]
[1]
  accumulation in thyroid: preferentially accumulates
  accumulation in tumor (BXPC-3-hNIS): does not discriminate between the two isotopes; also recorded: accumulate both isotopes to similar concentrations

## O=S(=O)([O-])[O-].[Ba+2] [barium sulfate]
[2]
  isotope signals from the stomach: reduced isotope signals from the stomach
[2]; listed as oral contrast agent
  isotope signals from the stomach: significant reduction of the stomach signal

B1: NIS-93E: mutant human sodium iodide symporter polypeptide, amino acid sequence SEQ ID NO:1 (FIG. 4) (protein, listed as Homo sapiens)
chain: MEAVETGERPTFGAWDYGVFALMLLVSTGIGLWVGLARGGQRSAEDFFTGGRRLAALPVGLSLSASFMSAVQVLGVPSEAYRYGLKFLWMCLEQLLNSVLTALLFMPVFYRLGLTSTYEYLEMRFSRAVRLCGTLQYIVATMLYTGIVIYAPALILNQVTGLDIWASLLSTGIICTFYTAVGGMKAVVWTDVFQVVVMLSGFWVVLARGVMLVGGPRQVLTLAQNHSRINLMDFNPDPRSRYTFWTFVVGGTLVWLSMYGVNQAQVQRYVACRTEKQAKLALLINQVGLFLIVSSAACCGIVMFVFYTDCDPLLLGRISAPDQYMPLLVLDIFEDLPGVPGLFLACAYSGTLSTASTSINAMAAVTVEDLIKPRLRSLAPRKLVIISKGLSLIYGSACLTVAALSSLLGGGVLQGSFTVMGVISGPLLGAFILGMFLPACNTPGVLAGLGAGLALSLWVALGATLYPPSEQTMRVLPSSAARCVALSVNASGLLDPALLPANDSSRAPSSGMDASRPALADSFYAISYLYYGALGTLTTVLCGALISCLTGPTKRSTLAPGLLWWDLARQTASVAPKEEVAILDDNLVKGPEELPTGNKKPPGFLPTNEDRLFFLGQKELEGAGSWTPCVGHDGGRDQQETNL
Mel624 cells
  iodide versus TcO4 concentrating efficiency: concentrate iodide with greater efficiency than TcO4
  uptake of pertechnetate (Technetium-99m): not pertechnetate
  uptake of radioiodide (Iodine-125): capable of up-taking radioiodide
Mel624 cells; FIGS. 1A and 1B
  concentration of Iodine-125 uptake in tumor cells as compared to non-mutated NIS (NIS WT): decrease
Mel624 cells; listed as G93E
  uptake of pertechnetate (Technetium-99m): not Technetium-99m
  uptake of radioiodide (Iodine-125): selectively transports Iodine-125
Mel624 cells; listed as NIS-G93E
  uptake of pertechnetate (Technetium-99m): not Technetium-99m
  uptake of radioiodide (Iodine-125): transport selectively Iodine-125
[3]
  isotope concentration by tumors expressing the polypeptide, subtraction SPECT: concentrate only iodide and not pertechnetate

B2: wild-type human NIS polypeptide: wild-type human sodium iodide symporter polypeptide (protein, UniProt Q92911 1-643, looked up)
Sodium/iodide cotransporter: B1 chain with E93G
Mel624 cells
  uptake of pertechnetate (Technetium-99m): Substantial uptake
  uptake of radioiodide (Iodine-125): Substantial uptake
